In the test the target is antigen CD3 (Biacore analysis) (Homo sapiens (Human)) (UniProt P07766). Briefly: SPR (Biacore). (In general: In SPR one partner is held on a chip, and binding of the other changes the refractive index at the surface.)

The record followed here is US20190359732A1.

B1: huOKT3 IgG1-aGlyco (antibody, V domains shown)
VH: QVQLVQSGGGVVQPGRSLRLSCKASGYTFTRYTMHWVRQAPGKGLEWIGYINPSRGYTNYNQKFKDRFTISRDNSKNTAFLQMDSLRPEDTGVYFCARYYDDHYCLDYWGQGTPVTVSS
VL: DIQMTQSPSSLSASVGDRVTITCSASSSVSYMNWYQQTPGKAPKRWIYDTSKLASGVPSRFSGSGSGTDYTFTISSLQPEDIATYYCQQWSSNPFTFGQGTKLQITR
As a reminder, the Kd is the concentration at which binding is half-saturated. A higher Kd goes with a looser complex. The koff is the first-order rate constant of dissociation. The kon is the second-order rate constant of association. A lower kon goes with slower complex formation. B1 showed a Kd of 64.6 nM, a koff of 0.109 s⁻¹ and a kon of 1.68e+06 M⁻¹ s⁻¹.
